# Test results published in publication PMC4569481, “Pseudomonas aeruginosa Uses Dihydrolipoamide Dehydrogenase (Lpd) to Bind to the Human Terminal Pathway Regulators Vitronectin and Clusterin to Inhibit Terminal Pathway Complement Attack” (PLoS ONE, 2015).
# B1: Lpd deletion mutant Lpd^1-382 (domain or fragment, P. aeruginosa strain PAO1, UniProt Q9I3D1 1-382, looked up)
# chain: MSQKFDVVVIGAGPGGYVAAIRAAQLGLKTACIEKYIGKEGKVALGGTCLNVGCIPSKALLDSSYKYHEAKEAFKVHGIEAKGVTIDVPAMVARKANIVKNLTGGIATLFKANGVTSFEGHGKLLANKQVEVTGLDGKTQVLEAENVIIASGSRPVEIPPAPLTDDIIVDSTGALEFQAVPKKLGVIGAGVIGLELGSVWARLGAEVTVLEALDKFLPAADEQIAKEALKVLTKQGLNIRLGARVTASEVKKKQVTVTFTDANGEQKETFDKLIVAVGRRPVTTDLLAADSGVTLDERGFIYVDDHCKTSVPGVFAIGDVVRGAMLAHKASEEGVMVAERIAGHKAQMNYDLIPSVIYTHPEIAWVGKTEQTLKAEGVEVNV
# notes: Dihydrolipoamide dehydrogenase (Lpd), P. aeruginosa strain PAO1, residues 1-382; also called Lpd^1-382: 53 kDa
# B2: Lpd deletion mutant Lpd^1-287 (domain or fragment, P. aeruginosa strain PAO1, UniProt Q9I3D1 1-287, looked up)
# chain: MSQKFDVVVIGAGPGGYVAAIRAAQLGLKTACIEKYIGKEGKVALGGTCLNVGCIPSKALLDSSYKYHEAKEAFKVHGIEAKGVTIDVPAMVARKANIVKNLTGGIATLFKANGVTSFEGHGKLLANKQVEVTGLDGKTQVLEAENVIIASGSRPVEIPPAPLTDDIIVDSTGALEFQAVPKKLGVIGAGVIGLELGSVWARLGAEVTVLEALDKFLPAADEQIAKEALKVLTKQGLNIRLGARVTASEVKKKQVTVTFTDANGEQKETFDKLIVAVGRRPVTTDLL
# notes: Dihydrolipoamide dehydrogenase (Lpd), P. aeruginosa strain PAO1, residues 1-287; also called Lpd^1-287: 37 kDa
# B3: Dihydrolipoamide dehydrogenase (Lpd) of P. aeruginosa, recombinant full length (Lpd^1-478) (natural protein)
# chain: MSQKFDVVVIGAGPGGYVAAIRAAQLGLKTACIEKYIGKEGKVALGGTCLNVGCIPSKALLDSSYKYHEAKEAFKVHGIEAKGVTIDVPAMVARKANIVKNLTGGIATLFKANGVTSFEGHGKLLANKQVEVTGLDGKTQVLEAENVIIASGSRPVEIPPAPLTDDIIVDSTGALEFQAVPKKLGVIGAGVIGLELGSVWARLGAEVTVLEALDKFLPAADEQIAKEALKVLTKQGLNIRLGARVTASEVKKKQVTVTFTDANGEQKETFDKLIVAVGRRPVTTDLLAADSGVTLDERGFIYVDDHCKTSVPGVFAIGDVVRGAMLAHKASEEGVMVAERIAGHKAQMNYDLIPSVIYTHPEIAWVGKTEQTLKAEGVEVNVGTFPFAASGRAMAANDTTGLVKVIADAKTDRVLGVHVIGPSAAELVQQGAIGMEFGTSAEDLGMMVFSHPTLSEALHEAALAVNGHAIHIANRKKR
# notes: On the gel two bands, 57 and 50 kDa
# B4: vitronectin, monomeric, purified from human plasma (natural protein)
# chain: DQESCKGRCTEGFNVDKKCQCDELCSYYQSCCTDYTAECKPQVTRGDVFTMPEDEYTVYDDGEEKNNATVHEQVGGPSLTSDLQAQSKGNPEQTPVLKPEEEAPAPEVGASKPEGIDSRPETLHPGRPQPPAEEELCSGKPFDAFTDLKNGSLFAFRGQYCYELDEKAVRPGYPKLIRDVWGIEGPIDAAFTRINCQGKTYLFKGSQYWRFEDGVLDPDYPRNISDGFDGIPDNVDAALALPAHSYSGRERVYFFKGKQYWEYQFQHQPSQEECEGSSLSAVFEHFAMMQRDSWEDIFELLFWGRTSAGTRQPQFISRDWHGVPGQVDAAMAGRIYISGMAPRPSLAKKQRFRHRNRKGYRSQRGHSRGRNQNSRRPSRATWLSLFSSEESNLGANNYDDYRMDWLVPATCEPIQSVFFFSGDKYYRVNLRTRRVDTVDPPYPRSIAQYWLGCPAPGHL
# notes: vitronectin, human, purified from plasma; In the MST experiment labelled with NT-647 RED-NHS; Plasma vitronectin circulates as variants of 75 and 65 kDa; also called Vn; full-length vitronectin; source: bought: Corning, purified from human plasma
# B5: clusterin, purified from human plasma (natural protein)
# chain 1: DQTVSDNELQEMSNQGSKYVNKEIQNAVNGVKQIKTLIEKTNEERKTLLSNLEEAKKKKEDALNETRESETKLKELPGVCNETMMALWEECKPCLKQTCMKFYARVCRSGSGLVGRQLEEFLNQSSPFYFWMNGDRIDSLLENDRQQTHMLDVMQDHFSRASSIIDELFQDRFFTREPQDTYHYLPFSLPHRRPHFFFPKSRIVR
# chain 2: SLMPFSPYEPLNFHAMFQPFLEMIHEAQQAMDIHFHSPAFQHPPTEFIREGDDDRTVCREIRHNSTGCLRMKDQCDKCREILSVDCSTNNPSQAKLRRELDESLQVAERLTRKYNELLKSYQWKMLNTSSLLEQLNEQFNWVSRLANLTQGEDQYYLRVTTVASHTSDSDVPSGVTEVVVKLFDSDPITVTVPVEVSRKNPKFMETVAEKALQEYRKKHREE
# notes: Disulfide-linked heterodimer of one alpha and one beta chain of 40 kDa each; In the MST experiment labelled with NT-647 RED-NHS; source: bought: BioVision, purified from human plasma; copies: 1 + 1
# How the values were obtained:
# Conditions in all cases: both partners purified
# [1] = biological target: B4; experiment: ELISA; equimolar amounts (13.3 nM) of full length Lpd and Lpd deletion mutants immobilized on microtiter plates; vitronectin or clusterin added; bound ligand quantified with antibodies
# [2] = biological target: B5; experiment: as above
# [3] = biological target: T1, Factor H (human, UniProt P08603 19-1231); experiment: ELISA; two human ligands added together to immobilized Lpd, one at a constant concentration (vitronectin 5 μg/ml, clusterin 2.5 μg/ml, Factor H 5 μg/ml or plasminogen 5 μg/ml), the other at increasing concentrations; each detected with its own antibody
# T1 construct: complement Factor H, human; source: bought: Complement Technology
# [4] = biological target: B3; experiment: MST; fluid phase; NT-647-labeled vitronectin (50 nM) or clusterin (25 nM) mixed with Lpd in 1:2 dilutions (0.001 to 50 μM); 50 mM Tris-HCl pH 7.6, 150 mM NaCl, 10 mM MgCl2, 0.05% Tween-20; RT; 50% LED power, 80% MST power
# [5] = biological target: Lpd deletion mutant Lpd^264-478 (P. aeruginosa strain PAO1, UniProt Q9I3D1 264-478); experiment: ELISA; equimolar amounts (13.3 nM) of full length Lpd and Lpd deletion mutants immobilized on microtiter plates; vitronectin or clusterin added; bound ligand quantified with antibodies
# [6] = biological target: T2, Lpd deletion mutant Lpd^1-160 (P. aeruginosa strain PAO1, UniProt Q9I3D1 1-160); experiment: as above
# T2 construct: Dihydrolipoamide dehydrogenase (Lpd), P. aeruginosa strain PAO1, residues 1-160; also called Lpd^1-160: 20 kDa; N-terminal Lpd^1-160
# [7] = biological target: Lpd deletion mutant Lpd^141-478 (P. aeruginosa strain PAO1, UniProt Q9I3D1 141-478); experiment: as above
# [8] = biological target: B3; experiment: ELISA; two human ligands added together to immobilized Lpd, one at a constant concentration (vitronectin 5 μg/ml, clusterin 2.5 μg/ml, Factor H 5 μg/ml or plasminogen 5 μg/ml), the other at increasing concentrations; each detected with its own antibody
# T1 sequence (P08603 19-1231): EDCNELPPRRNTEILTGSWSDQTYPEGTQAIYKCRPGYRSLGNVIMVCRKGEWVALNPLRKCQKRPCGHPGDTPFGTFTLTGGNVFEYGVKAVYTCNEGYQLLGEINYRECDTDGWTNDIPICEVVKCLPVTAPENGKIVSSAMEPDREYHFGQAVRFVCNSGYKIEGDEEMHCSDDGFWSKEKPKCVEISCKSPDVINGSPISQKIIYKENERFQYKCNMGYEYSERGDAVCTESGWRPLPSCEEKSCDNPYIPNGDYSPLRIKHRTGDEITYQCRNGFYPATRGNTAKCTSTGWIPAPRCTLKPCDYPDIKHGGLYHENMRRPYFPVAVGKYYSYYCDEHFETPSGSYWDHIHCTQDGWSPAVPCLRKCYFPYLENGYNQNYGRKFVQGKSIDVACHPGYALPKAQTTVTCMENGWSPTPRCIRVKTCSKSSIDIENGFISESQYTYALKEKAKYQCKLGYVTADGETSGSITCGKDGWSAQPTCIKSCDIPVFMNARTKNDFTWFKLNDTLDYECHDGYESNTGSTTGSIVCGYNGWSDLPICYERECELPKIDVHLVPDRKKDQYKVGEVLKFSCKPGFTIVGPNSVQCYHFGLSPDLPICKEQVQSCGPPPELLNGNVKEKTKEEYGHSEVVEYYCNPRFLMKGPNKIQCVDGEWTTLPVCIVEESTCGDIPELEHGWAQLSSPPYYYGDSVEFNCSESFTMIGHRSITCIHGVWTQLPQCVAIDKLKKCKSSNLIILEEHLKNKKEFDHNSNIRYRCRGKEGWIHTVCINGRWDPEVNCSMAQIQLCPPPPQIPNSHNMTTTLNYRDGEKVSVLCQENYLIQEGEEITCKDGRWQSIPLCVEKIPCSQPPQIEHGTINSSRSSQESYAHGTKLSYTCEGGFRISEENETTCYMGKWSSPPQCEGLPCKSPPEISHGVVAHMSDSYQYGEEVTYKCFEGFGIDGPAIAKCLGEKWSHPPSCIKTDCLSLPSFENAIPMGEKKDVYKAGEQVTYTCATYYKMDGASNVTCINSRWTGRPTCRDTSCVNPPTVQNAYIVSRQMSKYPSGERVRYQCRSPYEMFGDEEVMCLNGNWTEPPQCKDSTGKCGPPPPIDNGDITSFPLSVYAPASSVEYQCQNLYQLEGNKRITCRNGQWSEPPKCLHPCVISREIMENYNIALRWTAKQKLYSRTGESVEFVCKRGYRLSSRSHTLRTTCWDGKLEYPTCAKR
binder,measurement,setting,value
B1,binding result,[1],binds
same,binding result,[2],binds
B2,binding result,[1],binds
B3,binding result,[3],binds
B4,Kd,[4],600 ± 50 nM
same,percent reduction of binding (ELISA signal),[5],47%
same,percent reduction of binding (ELISA signal),[6],51%
same,percent reduction of binding (ELISA signal),[7],47%
same,percent reduction of Factor H binding to Lpd by vitronectin at four-fold molar excess,[8],37%
B5,Kd,[4],654 ± 54 nM
